Experimental data as given in the supplement of paper PMC7125110.
± gives the standard error. For part of these data: Variants at the floor of the assay were thinned out.

B1: glmS ribozyme (parent)
chain: AUAAAAGCGCCAGAACUACAGAAAUGUAGUUGACGAGGAGGAGGUUUAUCGAAUUUUCGGCGGAUGCCUCCAAA

Tests used:
Conditions in all cases: with glucosamine-6-phosphate
glucosamine-6-phosphate [1] = variants of: B1; experiment: kcat; higher = faster cleavage; RNA array
Outline: (§1)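 kobs was derived by fitting per-tile medians to one- or two-exponential decays after normalising signals to baseline and to non-cleaving reference variants. Those signals came from barcoded ribozyme variants transcribed in situ by E. coli RNA polymerase on sequenced MiSeq chips, followed through a hybridised Cy3 probe at 37 °C and imaged over ~14 h. Glucosamine-6-phosphate (40 μM to 10 mM) in HEPES/KCl/Mg(OAc)2 buffer was flowed in. Weighted Michaelis–Menten fits across concentrations then gave kcat and KM.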

glucosamine-6-phosphate [2] = variants of: B1; experiment: KM; higher = weaker cofactor use; RNA array
Outline: as §1

glucosamine-6-phosphate [3] = variants of: B1; experiment: self-cleavage kobs at 40 uM GlcN6P; higher = faster cleavage; RNA array
Outline: as §1

glucosamine-6-phosphate [4] = variants of: B1; experiment: self-cleavage kobs at 2500 uM GlcN6P; higher = faster cleavage; RNA array
Outline: as §1

glucosamine-6-phosphate [5] = variants of: B1; experiment: self-cleavage kobs at 10000 uM GlcN6P; higher = faster cleavage; RNA array
Outline: as §1

glucosamine-6-phosphate [6] = variants of: B1; experiment: self-cleavage kobs at 640 uM GlcN6P; higher = faster cleavage; RNA array
Outline: as §1

glucosamine-6-phosphate [7] = variants of: B1; experiment: self-cleavage kobs at 160 uM GlcN6P; higher = faster cleavage; RNA array
Outline: as §1

| Variant | kcat (glucosamine-6-phosphate [1]) [s⁻¹] | KM (glucosamine-6-phosphate [2]) [µM] | self-cleavage kobs at 40 uM GlcN6P (glucosamine-6-phosphate [3]) [s⁻¹] | self-cleavage kobs at 2500 uM GlcN6P (glucosamine-6-phosphate [4]) [s⁻¹] | self-cleavage kobs at 10000 uM GlcN6P (glucosamine-6-phosphate [5]) [s⁻¹] | self-cleavage kobs at 640 uM GlcN6P (glucosamine-6-phosphate [6]) [s⁻¹] | self-cleavage kobs at 160 uM GlcN6P (glucosamine-6-phosphate [7]) [s⁻¹] |
| --- | --- | --- | --- | --- | --- | --- | --- |
| G29U G32C | 0.000123 ± 3.9e-06 | 2730 ± 250 | < 1e-05 | 5.78e-05 ± 8.5e-06 | 9.71e-05 ± 8.4e-06 |  |  |
| U46G A48G | 7.99e-05 ± 1e-06 | 1250 ± 69 | < 1e-05 | 5.4e-05 ± 1.2e-05 | 7.08e-05 ± 1e-05 |  |  |
| U46C C50U | 1.22e-05 ± 2e-06 |  | < 1e-05 |  |  |  |  |
| U47C C50G | < 1e-05 |  |  |  |  | < 1e-05 |  |
| U46A C71U | 0.00396 ± 0.00074 | 2020 ± 580 | 8.79e-05 ± 1.3e-05 | 0.00353 ± 0.00069 | 0.00319 ± 0.00037 | 0.000874 ± 0.00015 | 0.000232 ± 6.3e-05 |
| U30A U46A | 0.00042 ± 5.2e-05 |  |  | 0.000372 ± 0.0001 | 0.000363 ± 5.1e-05 |  |  |
| U55C G62C | 1.58e-05 ± 2.1e-06 | 1220 ± 460 |  |  |  |  |  |
| U31C A33U | 1.97e-05 ± 2.4e-06 |  |  |  | 1.73e-05 ± 6e-06 |  |  |
| G38C G66C C70U | 1.23e-05 ± 9.7e-07 |  |  |  |  | < 1e-05 |  |
| A39C U45C | 0.000523 ± 3.8e-05 | 3080 ± 440 |  | 0.000214 ± 3.8e-05 | 0.000408 ± 4.5e-05 | 9.68e-05 ± 1.7e-05 |  |
| A12C A48C | 0.000151 ± 3.5e-05 |  |  | 4.89e-05 ± 1.2e-05 | 0.000111 ± 1.2e-05 | 3.34e-05 ± 1.1e-05 |  |
| A39C C58G | 1.1e-05 ± 2.2e-06 |  |  |  |  |  |  |
| C58A | 0.000863 ± 0.00012 | 4110 ± 820 | 1.13e-05 ± 2.2e-06 | 0.000305 ± 7.2e-06 | 0.000665 ± 2.3e-05 | 0.000118 ± 2.7e-06 | 3.84e-05 ± 2.2e-06 |
| C8U C10U | < 1e-05 |  | < 1e-05 |  |  | < 1e-05 |  |
| U30A A53G | 0.00645 ± 0.0027 |  | 0.000256 ± 5.1e-05 | 0.00301 ± 0.00096 | 0.00929 ± 0.002 | 0.00196 ± 0.00055 | 0.000553 ± 0.00023 |
| C16G G32A | 0.0013 ± 0.00037 | 2870 ± 1300 |  | 0.000434 ± 0.00011 | 0.00115 ± 0.00018 | 0.0003 ± 5.5e-05 | 7.04e-05 ± 1.7e-05 |
| C58A C68G | 3.84e-05 ± 1.3e-05 |  |  | 4.14e-05 ± 1.2e-05 |  | 6.18e-05 ± 1.1e-05 | 4.34e-05 ± 1.2e-05 |
| C67G C71U | 2.93e-05 ± 3.2e-06 |  |  | 3.07e-05 ± 8.1e-06 | 2.63e-05 ± 6.7e-06 |  |  |
